Measurements published in publication PMC6168492, “Human and mouse albumin bind their respective neonatal Fc receptors differently” (Scientific Reports, 2018).

Legend:
[1] = target: T1, wild-type mouse serum albumin with C-terminal GST (mouse, UniProt P07724 25-608); experiment: SPR; receptor binding to immobilised albumin at pH 5.5 in the presence of 0.005% Tween-20 instead of 0.05%; conditions: both partners purified
T1 construct: mouse serum albumin; also called MSA WT; WT MSA; source: HEK293E, transiently transfected, purified from supernatant (GSTrap FF); not shown: GST (Schistosoma japonicum), C-terminal, kept
T1 sequence (P07724 25-608): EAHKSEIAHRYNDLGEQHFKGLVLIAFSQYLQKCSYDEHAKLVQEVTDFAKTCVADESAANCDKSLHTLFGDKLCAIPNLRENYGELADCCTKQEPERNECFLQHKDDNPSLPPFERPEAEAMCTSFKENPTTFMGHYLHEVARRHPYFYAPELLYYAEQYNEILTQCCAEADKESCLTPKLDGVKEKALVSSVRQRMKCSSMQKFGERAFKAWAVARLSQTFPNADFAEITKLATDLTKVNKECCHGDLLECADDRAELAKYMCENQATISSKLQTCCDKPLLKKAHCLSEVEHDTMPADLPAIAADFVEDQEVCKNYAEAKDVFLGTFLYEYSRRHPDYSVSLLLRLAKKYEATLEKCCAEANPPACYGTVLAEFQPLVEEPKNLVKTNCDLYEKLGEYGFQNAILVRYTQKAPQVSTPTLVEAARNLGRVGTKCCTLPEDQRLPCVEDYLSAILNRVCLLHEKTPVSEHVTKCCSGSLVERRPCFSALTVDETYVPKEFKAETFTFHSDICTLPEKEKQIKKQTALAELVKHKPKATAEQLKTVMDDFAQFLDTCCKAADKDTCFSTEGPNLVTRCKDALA

[2] = target: T1, wild-type mouse serum albumin with …; experiment: SPR; Biacore T200; albumin variants amine-coupled on CM5 (~200 or 500 RU); monomeric His-tagged hFcRn or mFcRn injected in serial dilutions; phosphate buffer (177 mM phosphate, 85 mM NaCl, 0.05% Tween 20) pH 5.5, 30 µl/min, 25 °C; 1:1 Langmuir model; conditions: both partners purified

B1: soluble monomeric His-tagged mouse neonatal Fc receptor (mFcRn) (receptor)
chain: SETRPPLMYHLTAVSNPSTGLPSFWATGWLGPQQYLTYNSLRQEADPCGAWMWENQVSWYWEKETTDLKSKEQLFLEALKTLEKILNGTYTLQGLLGCELASDNSSVPTAVFALNGEEFMKFNPRIGNWTGEWPETEIVANLWMKQPDAARKESEFLLNSCPERLLGHLERGRRNLEWKEPPSMRLKARPGNSGSSVLTCAAFSFYPPELKFRFLRNGLASGSGNCSTGPNGDGSFHAWSLLEVKRGDEHHYQCQVEHEGLAQPLTVDLDSSARSS
b2m: IQKTPQIQVYSRHPPENGKPNILNCYVTQFHPPHIEIQMLKNGKKIPKVEMSDMSFSKDWSFYILAHTEFTPTETDTYACRVKHASMAEPKTVYWDRDM
notes: neonatal Fc receptor heavy chain, mouse, soluble form; beta2-microglobulin, non-covalently associated with the heavy chain; Surmised: the His tag sits on the truncated heavy chain; also called mouse FcRn; the mouse receptor
fold change of KD in 0.005% against 0.05% Tween-20 [1]: 1.7 fold | Kd [2]: 547 nM | koff [2]: 0.0164 s⁻¹ | kon [2]: 30000 M⁻¹ s⁻¹
